Consider four substances from PMC5085866.

Broadly, the Kd is the free concentration of one partner at which half of the binding sites on the other are occupied at equilibrium, for simple one-to-one binding.

Common to all, as to experiment: AUC
For assay [1], the target named is Enterococcus faecium LiaR DNA binding domain (residues 140-210) (Enterococcus faecium).
Assay [2] deals with Enterococcus faecium LiaR W73C, full length (Enterococcus faecium).
For assay [3] the target is unchanged. This is another data set of the same source.
Assay [4] deals with Enterococcus faecium LiaR receiver domain (residues 1-139) (Enterococcus faecium).
Assay [5] has as its target Enterococcus faecium LiaR receiver domain (residues 1-139) W73C (Enterococcus faecium).
The target is the same in assay [6]. This is another data set of the same source.

Like-named read-outs stand apart in the source and are kept apart here.

In turn, “Enterococcus faecium LiaR DNA binding domain (residues 140-210) (domain or fragment)” gave a Kd in assay [1] of 0.4 µM. Turning to “Enterococcus faecium LiaR W73C, full length (natural protein)”, the Kd stood at 236 µM in assay [2] and 182 µM in assay [3]. As to “Enterococcus faecium LiaR receiver domain (residues 1-139) (domain or fragment)”, the Kd in assay [4] was 676 µM. Turning to “Enterococcus faecium LiaR receiver domain (residues 1-139) W73C (domain or fragment)”, the equilibrium dissociation constant (Kd) amounted to 0.8 µM in assay [5] and 94 µM in assay [6].
